In article PMC11075132, “A transaminase-mediated aldol reaction and applications in cascades to styryl pyridines” (Catalysis Science & Technology, 2024) one finds Km and kcat data, which are given here for one protein.

Substrate in this series: NCCc1ccc(O)cc1
Briefly: purified protein. The format is biochemical, Chromobacterium violaceum. Conditions: apparent; transaminase reaction; 0.1 eq. PLP, 1 eq. pyruvate as amine acceptor; substrate 4a taken from context.

B1: CvTAm (Chromobacterium violaceum ATCC 12472) (protein)
chain: MQKQRTTSQWRELDAAHHLHPFTDTASLNQAGARVMTRGEGVYLWDSEGNKIIDGMAGLWCVNVGYGRKDFAEAARRQMEELPFYNTFFKTTHPAVVELSSLLAEVTPAGFDRVFYTNSGSESVDTMIRMVRRYWDVQGKPEKKTLIGRWNGYHGSTIGGASLGGMKYMHEQGDLPIPGMAHIEQPWWYKHGKDMTPDEFGVVAARWLEEKILEIGADKVAAFVGEPIQGAGGVIVPPATYWPEIERICRKYDVLLVADEVICGFGRTGEWFGHQHFGFQPDLFTAAKGLSSGYLPIGAVFVGKRVAEGLIAGGDFNHGFTYSGHPVCAAVAHANVAALRDEGIVQRVKDDIGPYMQKRWRETFSRFEHVDDVRGVGMVQAFTLVKNKAKRELFPDFGEIGTLCRDIFFRNNLIMRACGDHIVSAPPLVMTRAEVDEMLAVAERCLEEFEQTLKARGLA
notes: wild type, recombinant in E. coli, purified; homodimer; PLP enzyme; catalytic Lys288
B1: the Km (in general, the concentration of substrate that gives half-maximal velocity) was 1690 µM; the kcat (in general, the number of substrate molecules converted per active site and unit of time at saturation) amounted to 6.04 s⁻¹.
